Experimental data reported in patent US20240294622A1 (SUZHOU TRANSCENTA THERAPEUTICS, published 2024).

Assays:
DAN-his (Sinobiological) [1] = biological target: T1, DAN-his (Sinobiological) (human, UniProt P41271 17-181, limits assumed); test: blocking ELISA: coated BMP4, antibody pre-incubated with human DAN-his, anti-his HRP; blocked ligand BMP4; unit from the axis Concentration(nM) [Continued]
T1 construct: also called DAN (Sinobiological); human DAN-his
T1 sequence (looked up): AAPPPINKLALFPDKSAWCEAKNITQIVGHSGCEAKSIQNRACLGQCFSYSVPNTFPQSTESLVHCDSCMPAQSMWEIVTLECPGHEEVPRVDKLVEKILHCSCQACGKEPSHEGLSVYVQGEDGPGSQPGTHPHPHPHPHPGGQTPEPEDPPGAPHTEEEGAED
Description: (§1) Plates were coated with recombinant human BMP2/4 (0.5 μg/ml) overnight. Then the plates were washed once on an automatic plate washer using PBS+0.1% Tween 20 (Sigma). 100 μl of block solution consisting of PBS+1% BSA+1% normal goat serum+0.5% Tween 20 (Sigma) was added to each well and incubated at room temperature for 2 hours. Then the plates were washed three 3 times. Then 55 ul serial dilutions of chimeric antibodies 36F5 and 55 ul […] of human DAN-his in dilution buffer containing PBS+1% BSA+1% normal goat serum+0.01% Tween 20 separately were mixed and incubated for 1 h at RT before 100 ul of this complex was added to coated plates and allowed to incubate for an additional hour at room temperature. The plates were then washed 3 times and added with 100 ul of anti-his HRP (GenScript) in dilution buffer. Plates were then developed with a TMB solution and stopped by adding stop solution. After wash three times with wash buffer, the plates were read on a plate reader at 450 nm. Also, consistent with previous result, besides blocking gremlin activity, 36F5 could block BMP2/4 binding to DAN protein. (FIGS. 20A and 20B).

HGREM1-His (ACRO) [2] = biological target: T2, HGREM1-His (ACRO) (human, UniProt O60565 25-184); test: competition ELISA, Gremlin-his 0.25 ug/ml binding to coated FGFR1-Fc
T2 construct: Lys25-Asp184 of NP_037504 with C-terminal polyhistidine tag (ACRO GR1-H52H3); they are put here; also called hGREM1 (ACRO); human gremlin (ACRO)
T2 sequence: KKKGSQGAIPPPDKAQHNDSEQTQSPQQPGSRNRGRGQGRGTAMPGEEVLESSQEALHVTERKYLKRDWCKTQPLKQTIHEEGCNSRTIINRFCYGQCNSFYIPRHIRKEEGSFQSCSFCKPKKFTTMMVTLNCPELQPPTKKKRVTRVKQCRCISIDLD
Description: Next, 0.25 μg/ml of gremlin was selected to test the blocking activity. The ability of antibodies to block Gremlin binding to human FGFR1-Fc was examined via ELISA. Plates were coated with recombinant FGFR1-Fc (2 μg/ml) overnight and then serial dilutions of antibodies were incubated with 0.25 μg/ml of human Gremlin-his modified for 1 h at RT before this complex was added to coated plates and allowed to incubate for an additional hour at RT. The plates were then washed and added with anti-his HRP (GenScript). Plates were then developed with a TMB solution and stopped by adding stop solution. The plates were read on a plate reader at 450 nm. […] Humanized anti-GREM1 antibodies provided herein (e.g., Hu14E3, Hu22F1) are expected to show the similar technical effect as their chimeric counterparts in blocking the binding of hGREM1 to FGFR1.

HGREM1-His (ACRO) [3] = biological target: T2, HGREM1-His (ACRO); test: ELISA on coated human Gremlin-his; unit from the axis Ab(nM); panel called FIG. 19C in the text
Description: (§2) Clear polystyrene plates (BEAVER) were coated with 100 μl/well of a 0.5 μg/ml human gremlin (ACRO) and DAN (Sinobiological) in high pH coating buffer overnight at 4° C. Then the plates were washed once on an automatic plate washer using PBS+0.1% Tween 20 (Sigma). 100 μl of block solution consisting of PBS+1% BSA+1% normal goat serum+0.5% Tween 20 (Sigma) was added to each well and incubated at room temperature for 2 hours. Then 100 ul of antibodies (hybridoma or chimeric antibody 36F5, chimeric antibody 67G11, chimeric antibody 42B9) in antibody dilution buffer containing PBS+1% BSA+1% normal goat serum+0.01% Tween 20 starting from 2 μg/ml (13.33 nM) and then 4 fold serial dilution were added to each well of the plate and incubated for 1 hours at room temperature. Afterward the plates were washed three times with 200 ul of PBS+0.1% Tween20 followed by adding 100 μl/well 1:10000 Goat anti mouse IgG-HRP or mouse anti-human IgG-HRP (abcam), and incubate for 1 hour at room temperature. They were then washed 3× with PBS+0.1% Tween20. Finally, 100 μl/well of TMB (InnoReagents) was added to each well and after 2 minutes add 50 ul of stop solution to each well. The plates were read on a Multiscan FC microplate reader (Thermo Scientific) at 450 nm.

DAN-his (Sinobiological) [4] = biological target: T1, DAN-his (Sinobiological); test: blocking ELISA: coated BMP2, antibody pre-incubated with human DAN-his, anti-his HRP; blocked ligand BMP2; unit from the axis Concentration(nM)
Description: as §1

HGREM1-His (ACRO) [5] = biological target: T2, HGREM1-His (ACRO); test: ELISA on coated Gremlin-his; unit from the axis label Ab(ug/ml), the table prints none
Description: as §2

DAN-his (Sinobiological) [6] = biological target: T1, DAN-his (Sinobiological); test: ELISA on coated DAN-his; unit from the axis label Ab(ug/ml), the table prints none
Description: as §2

DAN-his (Sinobiological) [7] = biological target: T1, DAN-his (Sinobiological); test: ELISA on coated DAN-his; unit from the axis Ab(nM); panel called FIG. 19C in the text
Description: as §2

IC50 (DAN-his (Sinobiological) [1]): 3.93 nM | IC50 (HGREM1-His (ACRO) [2]): 1.37 nM | EC50 (HGREM1-His (ACRO) [3]): 0.0183 nM | IC50 (DAN-his (Sinobiological) [4]): 3.29 nM | EC50 (HGREM1-His (ACRO) [5]): 0.0238 µg/mL | EC50 (DAN-his (Sinobiological) [6]): 0.02 µg/mL | EC50 (DAN-his (Sinobiological) [7]): 0.0211 nM
B1: chimeric antibody 36F5 (36F5-chi) (antibody, human IgG1, V domains shown)
VH: QVQLQQSGAELARPGASVKLSCKASGYSFTSSGIGWVKQRSGQGLEWIGEIYPRSGNTYNNEKFKGKATLTADKSSSTVYMELRSLTSEDSAVYFCVREAYSHHYYAMDYWGQGTSVTVFS
VL: DVLMTQTPLSLPVSLGGQASISCRSSQSLLHSNGNTYLEWYLQKPGQSPKLLIYKVSNRFSGVPDRLSGSGSGTDFTLKISRVEAEDLGVYYCFQGSHVPFTFGSGTKLEIN
notes: also called chimeric 36F5
